The target of test [1] is T1, recombinant human OX40-His (SinoBiological, 10481-H08H) (human, UniProt P43489 29-216).
T1 construct: not shown: His tag
T1 sequence: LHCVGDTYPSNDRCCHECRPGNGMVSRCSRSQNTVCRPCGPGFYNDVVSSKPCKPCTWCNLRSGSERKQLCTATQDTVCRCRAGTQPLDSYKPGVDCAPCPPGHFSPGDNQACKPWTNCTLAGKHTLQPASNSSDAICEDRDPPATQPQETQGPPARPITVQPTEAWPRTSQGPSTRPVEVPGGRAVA
Briefly: Luminex suspension array, protein coupled to microspheres, PE MFI; antibody at 10, 100 and 1000 ng/ml. As for the experimental part:
(§1) A number of TNFR family members were chemically coupled to Luminex® microspheres using standard NETS-ester chemistry. […] Briefly, 25 μl of each dilution was incubated in the dark (20° C., 650 rpm) with 1500 Luminex® microspheres in 5 μl assay buffer for 1 hour in 96 half-well filter plates (Millipore, MABVN1250). Luminex® microspheres were coupled with recombinant human OX40-His (SinoBiological, 10481-H08H), recombinant human OX40-Fc (R&D systems, 3388-OX), recombinant human LTBR-Fc (Acros Biosystems, LTR-H5251), recombinant human GITR-His (SinoBiological, 13643-H08H), recombinant human GITR-Fc (R&D, 689-GR), recombinant human DR6-Fc (SinoBiological, 10175-H02H), recombinant human DR3-Fc (R&D, 943-D3), recombinant human TWEAK R-Fc (SinoBiological, 10431-H01H), recombinant human CD137-His (SinoBiological, 10041-H08H), recombinant human BAFFR-Fc (R&D, 1162-BR) or anti-human IgG (F(ab)₂-specific, JIR, 105-006-097) via amine coupling with COOH bead surface. Standard curves were generated using duplicates of 25 μl of a human IgG1 standard (Sigma, I5154) with 1:3 dilution series (0.08-540 ng/ml). […] Plates were analyzed using a Luminex® 200 system (Millipore). A total of 100 beads were counted per well in a 48 μl sample volume. […]

Test [2] addresses T2, recombinant human OX40-Fc (R&D systems, 3388-OX) (human, UniProt P43489 29-216).
T2 construct: not shown: Fc part
T2 sequence: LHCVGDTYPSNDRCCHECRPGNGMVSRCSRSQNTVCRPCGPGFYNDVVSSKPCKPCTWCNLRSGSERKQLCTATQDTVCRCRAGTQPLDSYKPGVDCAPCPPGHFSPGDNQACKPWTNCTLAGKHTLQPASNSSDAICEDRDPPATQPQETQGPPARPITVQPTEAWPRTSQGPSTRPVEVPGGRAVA
Described as above. As for the experimental part:
as §1

Test [3] concerns the target T3, human OX40 expressed on cells (human, UniProt P43489 29-277).
T3 construct: It was expressed ectopically on Jurkat cells or induced on Hut102 cells and primary T cells; also called huOX40; Jurkat-huOX40
T3 sequence: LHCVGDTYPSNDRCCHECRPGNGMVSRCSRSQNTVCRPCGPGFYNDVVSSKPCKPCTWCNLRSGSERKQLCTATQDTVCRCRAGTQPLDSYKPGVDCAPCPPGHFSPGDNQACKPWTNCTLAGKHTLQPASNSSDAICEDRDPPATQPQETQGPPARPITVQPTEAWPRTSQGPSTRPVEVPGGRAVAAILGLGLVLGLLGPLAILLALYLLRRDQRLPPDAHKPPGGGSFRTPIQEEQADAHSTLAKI
As to the kind of experiment: flow cytometry, 10-point titration 0.5-10,000 ng/ml, APC anti-human kappa detection. As for the experimental part:
Stable clones were generated via single-cell sorting (FACS ARIA Fusion). […] Samples were then washed two times and analyzed using the LSRFortessa flow cytometer (BD Biosciences). FACS plots were analyzed using a combination of FACS DIVA and WEHI Weasel software. Data were plotted with Graphpad Prism software.
A general note: In flow cytometry, cells or beads pass a laser one at a time.

Test [4] addresses T4, recombinant human CD137-His (SinoBiological, 10041-H08H) (human, UniProt Q07011 24-186).
T4 construct: Bought construct; not shown: His tag
Briefly: Luminex suspension array, protein coupled to microspheres, PE MFI. On the procedure: (§2) A number of TNFR family members were chemically coupled to Luminex® microspheres using standard NETS-ester chemistry. […] Briefly, 25 μl of each dilution was incubated in the dark (20° C., 650 rpm) with 1500 Luminex® microspheres in 5 μl assay buffer for 1 hour in 96 half-well filter plates (Millipore, MABVN1250). Luminex® microspheres were coupled with recombinant human OX40-His (SinoBiological, 10481-H08H), recombinant human OX40-Fc (R&D systems, 3388-OX), recombinant human LTBR-Fc (Acros Biosystems, LTR-H5251), recombinant human GITR-His (SinoBiological, 13643-H08H), recombinant human GITR-Fc (R&D, 689-GR), recombinant human DR6-Fc (SinoBiological, 10175-H02H), recombinant human DR3-Fc (R&D, 943-D3), recombinant human TWEAK R-Fc (SinoBiological, 10431-H01H), recombinant human CD137-His (SinoBiological, 10041-H08H), recombinant human BAFFR-Fc (R&D, 1162-BR) or anti-human IgG (F(ab)₂-specific, JIR, 105-006-097) via amine coupling with COOH bead surface. Standard curves were generated using duplicates of 25 μl of a human IgG1 standard (Sigma, I5154) with 1:3 dilution series (0.08-540 ng/ml). Detection was carried out using 60 μl of goat anti-human IgG F(ab)₂ labeled with R-PE (2.5 μg/ml; JIR 109-116-098, AbDSerotec Rapid RPE Antibody Conjugation Kit, LNK022RPE) and another hour of incubation time (20° C., 650 rpm). Plates were analyzed using a Luminex® 200 system (Millipore). A total of 100 beads were counted per well in a 48 μl sample volume. PE MFI values were used to determine specific or non-specific binding to the recombinant proteins mentioned above.

The target in test [5] is T5, recombinant human BAFFR-Fc (R&D, 1162-BR) (human, UniProt Q96RJ3 7-71, limits assumed).
T5 construct: Bought construct; not shown: Fc part
T5 sequence (Q96RJ3 7-71 limits assumed): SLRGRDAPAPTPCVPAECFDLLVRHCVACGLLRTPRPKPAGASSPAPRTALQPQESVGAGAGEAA
The description is as above. On the procedure:
as §2

Test [6] deals with T6, recombinant human DR6-Fc (SinoBiological, 10175-H02H) (human, UniProt O75509 42-349).
T6 construct: Bought construct; not shown: Fc part
T6 sequence (looked up): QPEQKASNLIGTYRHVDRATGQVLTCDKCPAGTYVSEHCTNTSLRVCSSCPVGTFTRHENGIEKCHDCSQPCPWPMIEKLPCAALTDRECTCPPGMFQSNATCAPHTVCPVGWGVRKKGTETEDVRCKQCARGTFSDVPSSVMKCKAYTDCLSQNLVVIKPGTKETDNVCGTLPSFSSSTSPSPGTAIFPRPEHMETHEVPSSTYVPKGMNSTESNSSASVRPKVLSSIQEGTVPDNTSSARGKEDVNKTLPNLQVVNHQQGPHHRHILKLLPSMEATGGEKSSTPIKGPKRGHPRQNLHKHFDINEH
The test is described as above. On the procedure: as §2

Test [7] has as its target T7, recombinant human TWEAK R-Fc (SinoBiological, 10431-H01H) (human, UniProt Q9NP84 28-80).
T7 construct: Bought construct; not shown: Fc part
Described as above. As for the experimental part: as §2

Test [8] deals with T8, recombinant human DR3-Fc (R&D, 943-D3) (human, UniProt Q93038 25-201, limits assumed).
T8 construct: Bought construct; not shown: Fc part
T8 sequence (looked up): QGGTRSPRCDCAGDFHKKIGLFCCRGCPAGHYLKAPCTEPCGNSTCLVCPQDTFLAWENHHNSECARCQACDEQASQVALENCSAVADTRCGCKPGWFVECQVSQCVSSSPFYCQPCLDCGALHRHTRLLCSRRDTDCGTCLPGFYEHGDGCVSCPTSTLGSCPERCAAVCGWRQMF
The test is described as above. On the procedure:
as §2

Test [9] has as its target T9, recombinant human GITR-His (SinoBiological, 13643-H08H) (human, UniProt Q9Y5U5 26-161).
T9 construct: Bought construct; not shown: His tag
T9 sequence (looked up): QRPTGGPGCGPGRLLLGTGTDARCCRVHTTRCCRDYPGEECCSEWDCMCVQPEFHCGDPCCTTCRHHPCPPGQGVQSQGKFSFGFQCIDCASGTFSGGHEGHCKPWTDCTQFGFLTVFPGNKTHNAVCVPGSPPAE
Described as above. As for the experimental part:
as §2

For test [10], the target named is T10, recombinant human LTBR-Fc (Acros Biosystems, LTR-H5251) (human, UniProt P36941 28-227, limits assumed).
T10 construct: Bought construct; not shown: Fc part
T10 sequence (P36941 28-227 limits assumed): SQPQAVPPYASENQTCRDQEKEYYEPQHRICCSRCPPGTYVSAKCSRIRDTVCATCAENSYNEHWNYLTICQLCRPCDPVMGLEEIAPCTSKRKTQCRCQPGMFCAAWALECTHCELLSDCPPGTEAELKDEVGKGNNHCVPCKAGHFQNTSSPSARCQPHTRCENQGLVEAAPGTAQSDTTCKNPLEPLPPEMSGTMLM
The description is as above. On the procedure: as §2

Test [11] has as its target T11, recombinant human GITR-Fc (R&D, 689-GR) (human, UniProt Q9Y5U5 26-161).
T11 construct: Bought construct; not shown: Fc part
T11 sequence (looked up): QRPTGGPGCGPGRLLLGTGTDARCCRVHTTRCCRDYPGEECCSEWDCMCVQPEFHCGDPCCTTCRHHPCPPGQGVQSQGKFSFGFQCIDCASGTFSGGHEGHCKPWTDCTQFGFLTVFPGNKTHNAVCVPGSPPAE
The test is described as above. On the procedure: as §2

T4 sequence (Q07011 24-186 limits assumed): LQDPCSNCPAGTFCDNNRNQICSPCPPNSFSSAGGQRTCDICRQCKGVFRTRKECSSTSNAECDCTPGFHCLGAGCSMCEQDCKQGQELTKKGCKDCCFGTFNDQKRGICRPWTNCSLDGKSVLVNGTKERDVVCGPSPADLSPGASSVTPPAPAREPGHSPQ

B1: pab2049 (IgG1) (antibody, V domains shown)
VH: EVQLVESGGGLVQPGGSLKLSCAASGFTFSGSAMHWVRQASGKGLEWVGRIRSKANSYATAYAASVKGRFTISRDDSKNTAYLQMNSLKTEDTAVYYCTSGIYDSSGYDYWGQGTLVTVSS
VL: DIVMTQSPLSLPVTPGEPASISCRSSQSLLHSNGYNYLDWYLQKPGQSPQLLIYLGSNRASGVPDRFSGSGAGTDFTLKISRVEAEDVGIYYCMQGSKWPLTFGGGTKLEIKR
notes: Human IgG1; also called anti-OX40 antibody pab2049 (IgG1)
Turning to B1, the binding result in test [1] was “binds”; in [2], “binds”; in [3] it was “binds”; in [4], “no binding (tested: 10 ng/ml, 100 ng/ml and 1000 ng/ml)”; in [5], “no binding (tested: 10 ng/ml, 100 ng/ml and 1000 ng/ml)”; in [6], “no binding (tested: 10 ng/ml, 100 ng/ml and 1000 ng/ml)”. Also, the binding result in [7] is “no binding (tested: 10 ng/ml, 100 ng/ml and 1000 ng/ml)”; in [8], “no binding (tested: 10 ng/ml, 100 ng/ml and 1000 ng/ml)”; in [9], “no binding (tested: 10 ng/ml, 100 ng/ml and 1000 ng/ml)”; in test [10], “no binding (tested: 10 ng/ml, 100 ng/ml and 1000 ng/ml)”; in test [11] it was “no binding (tested: 10 ng/ml, 100 ng/ml and 1000 ng/ml)”.
